Data on one molecule can be found in patent US20240390496A1 (published 2024).

The experiment concerns the target T1, MAGE-A3 peptide on HLA-A*02:01 (human).
T1 peptide: KVAELVHFL
Put plainly: killing.

B1: MAGE-A3 (112-120) TCR (MAGE-A3-112-120-Va / MAGE-A3-112-120-Vb) (TCR, V domains shown)
Valpha: GDSVTQTEGLVTLTEGLPVMLNCTYQTIYSNPFLFWYVQHLNESPRLLLKSFTDNKRTEHQGFHATLHKSSSSFHLQKSSAQLSDSALYYCAFDTNTYKVIFGKGTHLHVLP
Vbeta: DMKVTQMPRYLIKRMGENVLLECGQDMSHETMYWYRQDPGLGLQLIYISYDVDSNSEGDIPKGYRVSRKKREHFSLILDSAKTNQTSVYFCASSSTNTEVFFGKGTRLTVL
Take B1: the binding result is on record as “recognises”.
